Where no end group is shown, it is not given here.
T1: biotinylated Aβ1-16 polypeptide (also: biotinylated (site not given here))
T1 construct: also called Aβ1-16 (N-terminal peptide fragment)
T1 peptide: DAEFRHDSGYEVHHQK

B1: 066-7.17.2 (antibody, V domains shown)
VH: EVQLVESGGGLVKPGGSLKLSCAASGFTFSSYGMHWVRQAPEKGLEWVAMIWYDGTKKYYSDSVKGRFTISRDNAKNTLFLQMTSLRSEDTAMYYCARDRGIGTRHGPYFMDVWGQGTSVTVSS
VL: DIQMNQSPSSLSASLGDTITITCHARHNVRSYLNWYQQKPGNIPKLLIYAASSQQRGVPSRFSGSGSGTGFTLTISSLQPEDIATYYCLQSFGTPLTFGGGTKLEIK
B2: 066-4.26.14H4L4 (antibody, human IgG1, V domains shown)
VH: EVQLVESGGGLVQPGGSLRLSCAASGFTFRSYAMSWVRQAPGKGLEWVASISTTSNTYYPDSVKGRFTTSRDNAKNSVYLQMSSLRDEDTAMYYCGRGVITNQAWFAYWGQGILVTVSS
VL: EIVLTQSPGTLSLSPGERATLSCRASQSISNNLHWYQQKPGQAPRLLIKYASQSISGIPDRFSGSGSGTDFTLTISRLEPEDFAVYYCQQSNSWPLTFGGGTKVEIKR
notes: Humanized full-length antibody; human IgG1 heavy constant and human kappa light constant (vectors pGS003-hIgG1CH, pGS003-hIgKCL)
B3: 066-4.26.14H5L4 (antibody, human IgG1, V domains shown)
VH: EVQLVESGGGLVQPGGSLRLSCVASGFTFRSYAMSWVRQAPGKGLEWVASISTTSNTYYPDSVKGRFTTSRDNSKNTVYLQMSSLRAEDTAVYYCGRGVITNQAWFAYWGQGTLVTVSS
VL: EIVLTQSPGTLSLSPGERATLSCRASQSISNNLHWYQQKPGQAPRLLIKYASQSISGIPDRFSGSGSGTDFTLTISRLEPEDFAVYYCQQSNSWPLTFGGGTKVEIKR
notes: as for B2
B4: 066-4.26.14H3L1 (antibody, human IgG1, kappa, V domains shown)
VH: EVQLVQSGAEVKKPGESLKISCKGSGYSFRSYAMSWVRQMPGKGLEWVASISTTSNTYYPDSVKGRVTTSRDKSISTAYLQWSSLKASDTAMYYCGRGVITNQAWFAYWGQGTLVTVSS
VL: DIVLTQSPATLSVSPGERVTLSCRASQSISNNLHWYQQKSGQAPRLLIKYASQSISGIPSRFSGSGSGTDFTLTISSLQSEDFAVYFCQQSNSWPLTFGGGTQVEIKR
notes: as for B2
B5: 066-4.26.14H3L5 (antibody, human IgG1, kappa, V domains shown)
VH: EVQLVQSGAEVKKPGESLKISCKGSGYSFRSYAMSWVRQMPGKGLEWVASISTTSNTYYPDSVKGRVTTSRDKSISTAYLQWSSLKASDTAMYYCGRGVITNQAWFAYWGQGTLVTVSS
VL: EIVLTQSPDFQSVTPKEKVTITCRASQSISNNLHWYQQKPDQSPKLLIKYASQSISGVPSRFSGSGSGTDFTLTINSLEAEDAATYYCQQSNSWPLTFGQGTKVEIKR
notes: as for B2
B6: 066-4.26.14H3L4 (antibody, human IgG1, kappa, V domains shown)
VH: EVQLVQSGAEVKKPGESLKISCKGSGYSFRSYAMSWVRQMPGKGLEWVASISTTSNTYYPDSVKGRVTTSRDKSISTAYLQWSSLKASDTAMYYCGRGVITNQAWFAYWGQGTLVTVSS
VL: EIVLTQSPGTLSLSPGERATLSCRASQSISNNLHWYQQKPGQAPRLLIKYASQSISGIPDRFSGSGSGTDFTLTISRLEPEDFAVYYCQQSNSWPLTFGGGTKVEIKR
notes: as for B2
B7: 066-4.26.14 mouse-human chimeric antibody (antibody, human IgG1, V domains shown)
VH: EVKLVESGGGLVKPGGSLKLSCAASGFTFRSYAMSWVRQTPEKRLEWVASISTTSNTYYPDSVKGRFTTSRDNARNIVYLQMSSLRSDDTAMYYCGRGVITNQAWFAYWGQGTLVTVSA
VL: DIVLTQSPATLSVTPGDSVSLSCRASQSISNNLHWYQQKSHESPRLLIKYASQSISGIPSRFSGSGSGTDFTLSVNNVGTEDFGMYFCQQSNSWPLTFGAGTKLELKR
B8: 066-4.26.14H5L1 (antibody, human IgG1, V domains shown)
VH: EVQLVESGGGLVQPGGSLRLSCVASGFTFRSYAMSWVRQAPGKGLEWVASISTTSNTYYPDSVKGRFTTSRDNSKNTVYLQMSSLRAEDTAVYYCGRGVITNQAWFAYWGQGTLVTVSS
VL: DIVLTQSPATLSVSPGERVTLSCRASQSISNNLHWYQQKSGQAPRLLIKYASQSISGIPSRFSGSGSGTDFTLTISSLQSEDFAVYFCQQSNSWPLTFGGGTQVEIKR
notes: as for B2
B9: 066-4.26.14H4L2 (antibody, human IgG1, V domains shown)
VH: EVQLVESGGGLVQPGGSLRLSCAASGFTFRSYAMSWVRQAPGKGLEWVASISTTSNTYYPDSVKGRFTTSRDNAKNSVYLQMSSLRDEDTAMYYCGRGVITNQAWFAYWGQGILVTVSS
VL: DIVLTQSPATLSVSPGERATLSCRASQSISNNLHWYQQKPGQAPRLLIKYASQSISGIPARFSGSGSGTDFTLTISSLQSEDFAVYFCQQSNSWPLTFGGGTKVEIKR
notes: as for B2
B10: 066-4.26.14H2L3 (antibody, human IgG1, V domains shown)
VH: EVQLVESGGGLVKPGGSLRLSCAASGFTFRSYAMSWVRQTPEKRLEWVASISTTSNTYYPDSVKGRFTTSRDNAKNSVYLQMSSLRAEDTAVYYCGRGVITNQAWFAYWGQGTTVTVSS
VL: DIVLTQSPDFQSVTPKEKVTISCRASQSISNNLHWYQQKPDQSPKLLIKYASQSISGIPSRFSGSGSGTDFTLTINSLEAEDAAAYFCQQSNSWPLTFGPGTKVEIKR
notes: as for B2
B11: 066-4.26.14H5L3 (antibody, human IgG1, V domains shown)
VH: EVQLVESGGGLVQPGGSLRLSCVASGFTFRSYAMSWVRQAPGKGLEWVASISTTSNTYYPDSVKGRFTTSRDNSKNTVYLQMSSLRAEDTAVYYCGRGVITNQAWFAYWGQGTLVTVSS
VL: DIVLTQSPDFQSVTPKEKVTISCRASQSISNNLHWYQQKPDQSPKLLIKYASQSISGIPSRFSGSGSGTDFTLTINSLEAEDAAAYFCQQSNSWPLTFGPGTKVEIKR
notes: as for B2
B12: 066-4.26.14H5L2 (antibody, human IgG1, V domains shown)
VH: EVQLVESGGGLVQPGGSLRLSCVASGFTFRSYAMSWVRQAPGKGLEWVASISTTSNTYYPDSVKGRFTTSRDNSKNTVYLQMSSLRAEDTAVYYCGRGVITNQAWFAYWGQGTLVTVSS
VL: DIVLTQSPATLSVSPGERATLSCRASQSISNNLHWYQQKPGQAPRLLIKYASQSISGIPARFSGSGSGTDFTLTISSLQSEDFAVYFCQQSNSWPLTFGGGTKVEIKR
notes: as for B2
B13: 066-4.26.14H2L2 (antibody, human IgG1, V domains shown)
VH: EVQLVESGGGLVKPGGSLRLSCAASGFTFRSYAMSWVRQTPEKRLEWVASISTTSNTYYPDSVKGRFTTSRDNAKNSVYLQMSSLRAEDTAVYYCGRGVITNQAWFAYWGQGTTVTVSS
VL: DIVLTQSPATLSVSPGERATLSCRASQSISNNLHWYQQKPGQAPRLLIKYASQSISGIPARFSGSGSGTDFTLTISSLQSEDFAVYFCQQSNSWPLTFGGGTKVEIKR
notes: as for B2

Legend:
[1] = target: T1, biotinylated Aβ1-16 polypeptide; test: ELISA, hybridoma supernatant on biotinylated peptide captured by streptavidin
Experimental: (§1) Detection: After stopping the reaction, the microtiter plate was immediately placed into a microplate reader, the OD value was measured at 450 nm, and the original data was stored.
(§2) Data processing: The raw data were input into the software SoftMax Pro 6.2.1 for data processing.

[2] = target: T2, biotinylated Aβ14-29 polypeptide (biotinylated (site not stated)); test: as above
T2 construct: also called Aβ14-29 (middle peptide fragment)
Experimental: as §1, §2

[3] = target: T3, biotinylated Aβ1-42 polypeptide (human, biotinylated (site not stated)); test: as above
T3 construct: also called Full length Aβ1-42
Experimental: as §1, §2

Aβ1-42 polypeptide [4] = target: T4, Aβ1-42 polypeptide (human); test: ELISA EC50 on Aβ42 monomer, 2 ml transient transfection; table note: '-' means no combination; expression 3.96 mg/L
T4 construct: Synthetic peptide; also called Aβ1-42 monomer; Aβ monomer

Aβ1-42 polypeptide [5] = target: T4, Aβ1-42 polypeptide; test: ELISA EC50 on Aβ42 monomer, 2 ml transient transfection; table note: '-' means no combination; expression 3.12 mg/L
Aβ1-42 polypeptide [6] = target: T4, Aβ1-42 polypeptide; test: ELISA EC50 on Aβ42 monomer, 2 ml transient transfection; table note: '-' means no combination; expression 5.42 mg/L
Aβ1-42 polypeptide [7] = target: T4, Aβ1-42 polypeptide; test: ELISA EC50 on Aβ42 monomer, 2 ml transient transfection; table note: '-' means no combination; expression 3.68 mg/L
Aβ1-42 polypeptide [8] = target: T4, Aβ1-42 polypeptide; test: ELISA EC50 on Aβ42 monomer, 2 ml transient transfection; table note: '-' means no combination; expression 3.88 mg/L
Aβ1-42 polypeptide [9] = target: T4, Aβ1-42 polypeptide; test: SPR, Biacore T200, antibody captured on Protein A chip, human Aβ antigen as analyte
Experimental: Biacore-T200 detection was performed, ProteinA chip was used to capture candidate antibodies or positive antibodies, different concentrations of human Aβ antigen were used to flow through the chip, and the fitting analysis was performed based on the collected data. […] The detection conditions were: capture time: 30 s; antigen binding time: 120 s; dissociation time: 900 s; flow rate: 30 μl/min. And the regeneration conditions were: 20 mM NaOH solution, flow rate: 30 μl/min.

Aβ1-42 polypeptide [10] = target: T4, Aβ1-42 polypeptide; test: cell-based or functional assay

T4 sequence (peptide, as listed by the source): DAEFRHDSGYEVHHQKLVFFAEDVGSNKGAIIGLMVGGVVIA
T3 sequence (peptide, as listed by the source): as above

Row | Binder | Kd (Aβ1-42 polypeptide [9]) | koff (Aβ1-42 polypeptide [9]) | kon (Aβ1-42 polypeptide [9]) | relative fluorescence intensity (ThT, Aβ polymerization; hIgG = 1.00) (Aβ1-42 polypeptide [10]) | relative value of LDH release (SHSY5Y cells with Aβ; hIgG = 1.00) (Aβ1-42 polypeptide [10]) | other results
1 | B1 |  |  |  |  |  | OD value at 450 nm [1]: 0.92 OD; OD value at 450 nm [2]: 0.0612 OD; OD value at 450 nm [3]: 1.08 OD
2 | B2 |  |  |  |  |  | binding result (Aβ1-42 polypeptide [4]): no binding
3 | B3 |  |  |  |  |  | binding result (Aβ1-42 polypeptide [5]): no binding
4 | B4 |  |  |  |  |  | binding result (Aβ1-42 polypeptide [6]): no binding
5 | B5 |  |  |  |  |  | binding result (Aβ1-42 polypeptide [7]): no binding
6 | B6 |  |  |  |  |  | binding result (Aβ1-42 polypeptide [8]): no binding
7 | B7 | 12.6 nM | 0.000333 s⁻¹ | 26500 M⁻¹ s⁻¹ | 0.71 relative to hIgG | 1.32 relative to hIgG | 
8 | B8 | 24.8 nM | 0.000469 s⁻¹ | 18900 M⁻¹ s⁻¹ | 0.68 relative to hIgG | 1.37 relative to hIgG | 
9 | B9 | 36.3 nM | 0.000463 s⁻¹ | 12800 M⁻¹ s⁻¹ | 0.7 relative to hIgG | 1.3 relative to hIgG | 
10 | B10 | 25.8 nM | 0.000472 s⁻¹ | 18300 M⁻¹ s⁻¹ | 0.67 relative to hIgG | 1.42 relative to hIgG | 
11 | B11 | 32.5 nM | 0.00046 s⁻¹ | 14200 M⁻¹ s⁻¹ | 0.78 relative to hIgG | 1.41 relative to hIgG | 
12 | B12 | 20.8 nM | 0.000278 s⁻¹ | 13400 M⁻¹ s⁻¹ | 0.67 relative to hIgG | 1.26 relative to hIgG | 
13 | B13 | 22.5 nM | 0.000433 s⁻¹ | 19200 M⁻¹ s⁻¹ | 0.62 relative to hIgG | 1.41 relative to hIgG | 

— patent publication US20220242936A1 (CHANGCHUN GENESCIENCE PHARMACEUTICAL, published 2022)
